Here are results for 16 molecules from publication PMC7887213 (Nature Communications, 2021).

Holding throughout (conditions): both partners purified
For assay [1], the target named is T1, Ac-[residues removed]-NH2 (NPNA2 peptide) (Plasmodium falciparum (synthetic CSP …)).
T1 construct: also called 8-mer peptide; source: synthetic peptide; bought: Innopep Inc
The assay can be described thus: ITC; peptide in the syringe, Fab (~10 uM) in the cell; DPBS, 25 °C; single-site binding model; triplicate, mean ± SD; No. of sites = peptide per Fab. (In general: ITC needs no label: the signal is the heat of the interaction.)

Assay [2] addresses T2, Ac-[residues removed]-NH2 (NPNA4 peptide) (Plasmodium falciparum (synthetic CSP …)).
T2 construct: also called 16-mer peptide; source: synthetic peptide; bought: Innopep Inc
Described as above.

For assay [3], the target named is T3, Ac-[residues removed]-NH2 (NPNA6 peptide) (Plasmodium falciparum (synthetic CSP …)).
T3 construct: also called 24-mer peptide; source: synthetic peptide; bought: Innopep Inc
The assay is described as above.

For assay [4], the target named is T4, NPNA2 peptide (Ac-[residues removed]-NH2) (Plasmodium falciparum (synthetic CSP …).
T4 construct: source: synthetic peptide, bought: Innopep Inc
The assay can be described thus: ITC; peptide in the syringe, Fab (~10 uM) in the cell; DPBS; 25 C; single-site binding model; triplicate; apparent affinity.

The target in assay [5] is T5, NPNA4 peptide (Ac-[residues removed]-NH2) (Plasmodium falciparum (synthetic CSP …).
T5 construct: source: synthetic peptide, bought: Innopep Inc
The description is as above.

Assay [6] deals with T6, NPNA6 peptide (Ac-[residues removed]-NH2) (Plasmodium falciparum (synthetic CSP …).
T6 construct: source: synthetic peptide, bought: Innopep Inc
Described as above.

B1: Fab317 (Fab, V domains shown)
VH: QMQLVESGGGVVQPGRSLRLSCTASGFTFSTYAMHWVRQSPGQGLQWVAVISYHSTNKYYEDSVRGRFTISRDNSKNTLYLQMNSLRAEDTAVYYCARDGYSSSFFDFWGQGTLVTVSS
VL: DIQMTQSPSTLSASVGDRVAITCRASQSISRWLAWYQQQPGKAPKLLMSGASVLESGVPSRFSGSGSGTEFTLTISSLQPDDFATYYCQHYNSYFVTFGQGTKVEIK
notes: also called mAb317; source: ExpiCHO cells, purified (HiTrap Protein G, SEC)
For orientation: stoichiometry N means a count of units in the complex or per binding partner. On to B1, for which the “stoichiometry N” value is 1.36 in assay [1], 0.95 in assay [2] and 0.723 in assay [3].

B2: Fab317 (Fab, V domains shown)
VH: QMQLVESGGGVVQPGRSLRLSCTASGFTFSTYAMHWVRQSPGQGLQWVAVISYHSTNKYYEDSVRGRFTISRDNSKNTLYLQMNSLRAEDTAVYYCARDGYSSSFFDFWGQGTLVTVSS
VL: DIQMTQSPSTLSASVGDRVAITCRASQSISRWLAWYQQQPGKAPKLLMSGASVLESGVPSRFSGSGSGTEFTLTISSLQPDDFATYYCQHYNSYFVTFGQGTKVEIK
notes: as for B1
Regarding B2, the Kd was 132 nM in assay [4], 70 nM in assay [5] and 111 nM in assay [6].

B3: Fab311 (Fab, V domains shown)
VH: EVQLVESGGGVVPPGRSLRLSCATSGFTFSNYGMHWVRQAPGKGLEWVAIIWYDGSRNFYAASVEGRFTISRDNSKNTLYLQMNSLRVEDTAVYYCARAAYYDTSGYGDYWGQGTLVTVSS
VL: ESVLTQPPSVSGAPGQTVTISCTGGSSNIGAGYDVHWYQQLPGTAPKLLIYGNINRPSGVPDRFSGSKSGTSASLAITGLQAEDEADYYCQSYDRRLSGSWVFGGGTKLTVL
notes: also called mAb311; source: ExpiCHO cells, purified (HiTrap Protein G, SEC)
Turning to B3, the “stoichiometry N” value in assay [1] was 1.27; in assay [2], 0.578; in assay [3], 0.386.

B4: Fab311 (Fab, V domains shown)
VH: EVQLVESGGGVVPPGRSLRLSCATSGFTFSNYGMHWVRQAPGKGLEWVAIIWYDGSRNFYAASVEGRFTISRDNSKNTLYLQMNSLRVEDTAVYYCARAAYYDTSGYGDYWGQGTLVTVSS
VL: ESVLTQPPSVSGAPGQTVTISCTGGSSNIGAGYDVHWYQQLPGTAPKLLIYGNINRPSGVPDRFSGSKSGTSASLAITGLQAEDEADYYCQSYDRRLSGSWVFGGGTKLTVL
notes: as for B3
B4: the values for the Kd in assay [4] and in assay [6] were 152 nM and 19 nM, respectively.

B5: Fab224 (Fab, V domains shown)
VH: EVQLVESGGGLVQPGRSLRLPCTASGFSFGDHAMSWVRQAPGKGLEWVGFIRKTTYGATTHYAAAVRGRFTISRDDSKSIVYLQMNSLKTEDTAVYFCTRVQLDYGPGYQYYGMDVWGQGTTVTVSS
VL: ESVLTQPPSVSGAPGQRVTISCTGMNSNIGAGYDVYWYQQLPGRAPKLLIYGNSNRPSGVPDRFSGSRSGTSASLAITGLQAEDEADYYCQSYDTSLNGWAFGGGTKLTVL
notes: also called mAb224; source: ExpiCHO cells, purified (HiTrap Protein G, SEC)
B5: the “stoichiometry N” value in assay [1] was 1.59; in assay [2], 1.26; in assay [3], 0.749.

B6: Fab224 (Fab, V domains shown)
VH: EVQLVESGGGLVQPGRSLRLPCTASGFSFGDHAMSWVRQAPGKGLEWVGFIRKTTYGATTHYAAAVRGRFTISRDDSKSIVYLQMNSLKTEDTAVYFCTRVQLDYGPGYQYYGMDVWGQGTTVTVSS
VL: ESVLTQPPSVSGAPGQRVTISCTGMNSNIGAGYDVYWYQQLPGRAPKLLIYGNSNRPSGVPDRFSGSRSGTSASLAITGLQAEDEADYYCQSYDTSLNGWAFGGGTKLTVL
notes: as for B5
As to B6, the values for the Kd in assay [4], in assay [5] and in assay [6] were 14200 nM, 126 nM and 141 nM, respectively.

B7: Fab366 (Fab, V domains shown)
VH: QVQLVQSGAEVKKPGASARVSCKASGYTLTDFYLHWVRQAPGQGLEWMGWLNPHSGGTNYAQKFLGRVSMTRDTSISTAYMELNKLISDDTAVYFCVRSDQEALRGAFDIWGQGTMVFVSS
VL: DIQMTQSPSSLSASVGDTVTITCRASQSINDYLNWYQQKPGKAPKLLIYATSSLHSGVPSRFSGSGFGTDFTLTISSLQPEDSATYLCQQSHSLWTFGQGTKVEVK
notes: also called mAb366; source: ExpiCHO cells, purified (HiTrap Protein G, SEC)
In the case of B7, the “stoichiometry N” value in assay [1] is 1.21; in assay [2] it was 1.21; in assay [3], 0.67.

B8: Fab399 (Fab, V domains shown)
VH: EVQLVESGGGLVQPGRSLRLSCTTSGFTFGDYAMSWFRQAPGKGLEWVGFIRSKGFGGTAEYAAFVKGRFTISRDDSRSIAYLQMTSLKPEDTAVYYCSRVGVVIATAVYWGQGTLVTVSS
VL: DILMTQTPLSLSVTPGQPASISCKSSQSLLDNDGKTYLYWYLQKPGQSPQLLIYEVSNRFSGVPERFSGSGSGTDFTLKIRRVEAEDVGVYYCMQRIDLPWTFGQGTKVEIK
notes: also called mAb399; source: ExpiCHO cells, purified (HiTrap Protein G, SEC)
On to B8, for which the “stoichiometry N” value in assay [1] came out at 3.23; in assay [2], 1.74; in assay [3], 0.737.

B9: Fab239 (Fab, V domains shown)
VH: QVQLVESGGGVVQPGRSLRLSCAASRLTFRNFGMHWVRQTPGKGLEWVAVIWHDGSNKFYADSVEGRFTISRDNSKNTLYLQMNSLRDEDTAIYYCAKDWGGASDRVFDYWGRGTLVIVSS
VL: DIQMTQSPSTLSASVGDRVTITCRASQSVSTSLAWYQQKPGKAPNLLIYQASTLYRGVPSRFSGSGSGTEFTLTIGSLQPDDFATYYCQHYNSYSRITFGQGTRLEIK
notes: also called mAb239; source: ExpiCHO cells, purified (HiTrap Protein G, SEC)
Regarding B9, the “stoichiometry N” value is 1.34 in assay [1], 0.572 in assay [2] and 0.348 in assay [3].

B10: Fab239 (Fab, V domains shown)
VH: QVQLVESGGGVVQPGRSLRLSCAASRLTFRNFGMHWVRQTPGKGLEWVAVIWHDGSNKFYADSVEGRFTISRDNSKNTLYLQMNSLRDEDTAIYYCAKDWGGASDRVFDYWGRGTLVIVSS
VL: DIQMTQSPSTLSASVGDRVTITCRASQSVSTSLAWYQQKPGKAPNLLIYQASTLYRGVPSRFSGSGSGTEFTLTIGSLQPDDFATYYCQHYNSYSRITFGQGTRLEIK
notes: as for B9
For the molecule B10, the figures for the Kd in assay [4], in assay [5] and in assay [6] were 641 nM, 20 nM and 10 nM, respectively.

B11: Fab397 (Fab, V domains shown)
VH: EVQLVKSGGGLVKPGGSLRLSCAVSGFTFTDAWMSWVRQAPGKGPEWVGRIKSNPDGGTTDYAAPVRGRFTISRDDSKNTLYLQMNNLKTEDTAVYYCITDRDFYRSGGSWGQGTLVTV
VL: DIVMTQSPLSLPVTPGEPASISCRSRQSLLYSNGDNYLDWYLQKPGQSPQLLIYLGSNRAPGVPDRFSGSGSGTDFTLKISRVEAEDVGVYYCMQTLQTPHTFGQGTKLEIK
notes: also called mAb397; source: ExpiCHO cells, purified (HiTrap Protein G, SEC)
For B11, the results for the “stoichiometry N” value in assay [1], in assay [2] and in assay [3] were 1.18, 1.3 and 0.73, respectively.

B12: Fab397 (Fab, V domains shown)
VH: EVQLVKSGGGLVKPGGSLRLSCAVSGFTFTDAWMSWVRQAPGKGPEWVGRIKSNPDGGTTDYAAPVRGRFTISRDDSKNTLYLQMNNLKTEDTAVYYCITDRDFYRSGGSWGQGTLVTV
VL: DIVMTQSPLSLPVTPGEPASISCRSRQSLLYSNGDNYLDWYLQKPGQSPQLLIYLGSNRAPGVPDRFSGSGSGTDFTLKISRVEAEDVGVYYCMQTLQTPHTFGQGTKLEIK
notes: as for B11
For B12, the results for the Kd in assay [4], in assay [5] and in assay [6] were 2740 nM, 255 nM and 92 nM, respectively.

B13: Fab356 (Fab, V domains shown)
VH: VQLVESGGGVVQPGRSLRLSCAASGFTFRNFGMHWVRQTPGKGLEWVAVIWHDGSNKFYADSVEGRFTISRDNSKNMIYLQMNSLRVEDTAIYYCARDSLFYDHDNSGYYGYWGQGTLVTVSS
VL: QIVMTQSPATVSVSPGERATLSCRASRSVTSKLAWYQQKPGQAPRLLIYGASTRATGIPARFSGSGSGTEFTLTISSLQSEDFAVYFCQQYNNGFTFGPGTKVDFK
notes: also called mAb356; source: ExpiCHO cells, purified (HiTrap Protein G, SEC)
Regarding B13, the “stoichiometry N” value in assay [1] turned out to be 1.29; in assay [2], 0.542; in assay [3], 0.354.

B14: Fab364 (Fab, V domains shown)
VH: QVQLVESGGGVVQPGGSLRLSCAASGFTFSGYGMHWVRQVPGKGLEWVAIIWFDGSQKYYADSVQGRFTISRDNSKKTLFLRMNSLRAEDTAVYYCAKVHDDEPTQDYWGQGTLVTVSS
VL: DIQMTQSPSTLSASVGDRVTITCRASQGISTSLAWYQQKPGKAPKLLIYKASSLESGVPSRFSGSGSGTEFTLTITSLQPEDFATYYCQQYKRYWTFGQGTKVEIK
notes: also called mAb364; source: ExpiCHO cells, purified (HiTrap Protein G, SEC)
For the molecule B14, the “stoichiometry N” value turned out to be 1.41 in assay [1], 0.634 in assay [2] and 0.445 in assay [3].

B15: Fab364 (Fab, V domains shown)
VH: QVQLVESGGGVVQPGGSLRLSCAASGFTFSGYGMHWVRQVPGKGLEWVAIIWFDGSQKYYADSVQGRFTISRDNSKKTLFLRMNSLRAEDTAVYYCAKVHDDEPTQDYWGQGTLVTVSS
VL: DIQMTQSPSTLSASVGDRVTITCRASQGISTSLAWYQQKPGKAPKLLIYKASSLESGVPSRFSGSGSGTEFTLTITSLQPEDFATYYCQQYKRYWTFGQGTKVEIK
notes: as for B14
Turning to B15, the results for the Kd in assay [4], in assay [5] and in assay [6] were 47 nM, 28 nM and 27 nM, respectively.

B16: Fab395 (Fab, V domains shown)
VH: QEQLVESGGGVVQPGRSLRLSCAAASEFCFSCYGMHWVRQAPGKGLEWVAVIWHDGSNQHFADSVKGRFTISRDNSKNIMYLQMNSLRAEDTAVYYCASATRYDILTGAFDYWGQGTLVTVSS
VL: DIQMTQSPSTLSASVGDRVTITCRASQSISTWLAWYQQKPGKAPKLLIYKASSLESGVPSRFSGSGSGTEFTLTISSLQPDDFATYYCQQYSRYWTFGQGTKVEIK
notes: also called mAb395; source: ExpiCHO cells, purified (HiTrap Protein G, SEC)
With B16, the “stoichiometry N” value turned out to be 1.35 in assay [1], 0.608 in assay [2] and 0.432 in assay [3].
